Measured values: US5180678A, “Uses of substantially pure interleukin-9 receptor” (Ludwig Institute for Cancer Research, priority 1992, dated 1993)

Tests used:
IL-9R [1] = target: T1, IL-9R (Mus musculus, UniProt Q01114); experiment: IL-9 binding to resting and activated T helper clones; parameters: endogenous in cells; conditions: 7.5×10^-10 M labelled rIL-9
T1 sequence (Q01114 38-468): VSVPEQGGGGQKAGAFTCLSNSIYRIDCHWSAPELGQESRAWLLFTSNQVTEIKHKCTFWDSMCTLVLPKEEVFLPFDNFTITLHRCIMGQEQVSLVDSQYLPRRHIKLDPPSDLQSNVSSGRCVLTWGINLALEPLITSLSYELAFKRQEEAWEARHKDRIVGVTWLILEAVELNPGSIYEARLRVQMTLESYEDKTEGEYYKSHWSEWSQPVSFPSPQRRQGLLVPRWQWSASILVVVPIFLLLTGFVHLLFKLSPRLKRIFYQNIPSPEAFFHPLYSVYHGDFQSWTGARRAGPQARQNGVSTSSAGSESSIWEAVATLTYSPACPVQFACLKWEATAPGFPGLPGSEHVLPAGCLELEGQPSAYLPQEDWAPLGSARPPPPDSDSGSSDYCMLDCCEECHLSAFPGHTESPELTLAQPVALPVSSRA
Description: The correlation between IL-9 and proliferation of T4 cell lines in response to IL-9 was studied. Resting T cells were collected from two week cultures, and 2×10^6 cells were stimulated by antigen (KLH, 25 ug/ml) in the presence of 70×10^6 & spleen cells for four days. Blasts were isolated by centrifugation and IL-9 binding was determined following incubation with 7.5×10^-10 M labelled rIL-9. Resting cells which had not been restimulated were treated in parallel. Maximal IL-9 induced proliferation was measured by incubation of resting cells in microliter plates (50,000/well), either with or without saturating concentrations of IL-9. Radioactive thymidine incorporation, which was the manner in which proliferation was determined, was measured on day 3.

IL-9R [2] = target: T1, IL-9R; experiment: Competitive binding of radiolabelled rIL-9 to TS1 cells (specificity of IL-9 binding); parameters: a number of different cell types were tested for the presence of the IL-9R molecule; endogenous in cells; conditions: competitor 6.1 × 10^-10 M; labelled rIL-9 6.1×10^-10 M, 10^6 TS1 cells, 3 h 4° C.; no competitor 4083 ± 16
Description: In order to test whether the radioactive IL-9 would bind to TS1 cells which are mouse cells, which are IL-9 dependent, a competitive assay was carried out. Specifically, rIL-9 was incubated with TS1 cells in 140 ul of DMEM containing BSA (10 mg/ml) and Na3 N (10 mM). In order to determine the level of binding, a 100 fold excess of "cold", i.e., non-radiolabelledIL-9, was also mixed with the material. The rIL-9 was admixed at 6.1×10^-10 M, for three hours at 4° C., with 10^6 TS1 cells. Bound material was separated from free ligand via centrifugation over a layer of dibutyl and dioctyl phthalate (15:I). In addition, the experiments were repeated using various interleukins, interferon-γ ("INF-γ"), tumor necrosis factor ("TNF"), and granulocyte, macrophage colony stimulating factor ("GM-CSF"). All experiments were carried out in triplicate.

IL-9R [3] = target: T1, IL-9R; experiment: Cellular distribution of IL-9R: specific binding of 125I-labeled IL-9 to cell types; parameters: a number of different cell types were tested for the presence of the IL-9R molecule; endogenous in cells
Description: The molecular nature of the IL-9R was studied via affinity cross linking experiments. In these, 5×10^6 cells (TS1)/ml were incubated for three hours at 4° C. in 140 ul of binding medium, either with 1.3×10^-10 M of labeled rIL-9, or the labeled cytokine mixed with 3.1×10^-8 M of the unlabeled material. After two washes with 1 ml of cold, phosphate buffered saline (PBS) at pH 7.4, cells were resuspended in 2.25 ml of cold PBS (pH 8.4), containing 1 mM MgCl2. Disuccinimidyl suberate, solubilized in dimethylsulfoxide, was added at a final concentration of 10 ug/ml. This cross links the cytokine to the cell. […] After a 30 minute incubation on ice, the reaction was quenched by adding 2.5 ml of cold 10 mM TRIS-HCl (pH 7.4) and 1 mM EDTA. The cells were centrifuged and the resulting pellet was resuspended in 50 ul of cold lysis buffer (Tris-HCl 126 mM, pH 7.5 containing 0.7% Triton-X100, 2 mM phenylmethylsulfonyl fluoride (PMSF)), 10 mM EDTA, 10 mM 2-mercaptoethanol, and, in some cases 0.2 mM pepstatin, 2 mM O-phenanthrolin and 0.1 mM leupeptin were included. […] Following extraction, the detergent mixture was incubated for 30 minutes on ice, with insoluble material being removed by centrifuging for 15 minutes at 10,000 rpm. Supernatant was boiled for 90 seconds in the presence of 3 mg/ml of SDS, and was diluted twice with lysis buffer.
Following the protocols of Example 5, a number of different cell types were tested for the presence of the IL-9R molecule.
±Cells were incubated with ^125 Ilabeled IL9.

- IL-9 binding Activated Cells (IL-9R [1]; T helper clone TUC2.15, antigen (KLH) stimulated blasts): 532 mol/cell
- IL-9 binding Resting Cells (IL-9R [1]; T helper clone TUC2.15): 159 mol/cell
- IL-9 binding Resting Cells (IL-9R [1]; T helper clone TUC7.11): < 10 mol/cell
- IL-9 binding Activated Cells (IL-9R [1]; T helper clone TUC7.33, antigen (KLH) stimulated blasts): < 10 mol/cell
- IL-9 binding Resting Cells (IL-9R [1]; T helper clone TUC7.33): 21 mol/cell
- IL-9 binding Activated Cells (IL-9R [1]; T helper clone TUC7.51, antigen (KLH) stimulated blasts): 514 mol/cell
- IL-9 binding Resting Cells (IL-9R [1]; T helper clone TUC7.51): 94 mol/cell
- Bound Radioactivity (IL-9R [2]): 1181 ± 123 cpm
- Specific Binding (IL-9R [3]; Factor-dependent T cells ST2K9.4A2, 125I-labeled IL-9 4.1 × 10^-10 M): 1415 mol/cell
- Specific Binding (IL-9R [3]; Factor-dependent T cells TS1, 125I-labeled IL-9 5.6 × 10^-10 M): 2235 mol/cell
- Specific Binding (IL-9R [3]; Factor-dependent T cells TUC.51S1, 125I-labeled IL-9 1.3 × 10^-10 M): 663 mol/cell
- Specific Binding (IL-9R [3]; Lymphoma LBRM-33-1A5, 125I-labeled IL-9 5.6 × 10^-10 M): 599 mol/cell
- Specific Binding (IL-9R [3]; Macrophages Bone marrow derived, 125I-labeled IL-9 4.1 × 10^-10 M): 195 mol/cell
- Specific Binding (IL-9R [3]; Macrophages P399D1, 125I-labeled IL-9 6.2 × 10^-11 M): 16 mol/cell
- Specific Binding (IL-9R [3]; Macrophages PU5-1,8, 125I-labeled IL-9 1.3 × 10^-10 M): 229 mol/cell
- Specific Binding (IL-9R [3]; Mast cell line L138.C, 125I-labeled IL-9 4.1 × 10^-10 M): 331 mol/cell
- Specific Binding (IL-9R [3]; Mast cell line L138.8A, 125I-labeled IL-9 4.1 × 10^-10 M): 2208 mol/cell
- Specific Binding (IL-9R [3]; Myeloid Cell Line DA-1, 125I-labeled IL-9 3.2 × 10^-10 M): 18 mol/cell
- Specific Binding (IL-9R [3]; T-cell leukemia TH1, 125I-labeled IL-9 5.6 × 10^-10 M): 273 mol/cell
- Specific Binding (IL-9R [3]; Thymoma BW5147, 125I-labeled IL-9 6.2 × 10^-10 M): 120 mol/cell
- Specific Binding (IL-9R [3]; Thymoma EL4.16, 125I-labeled IL-9 7.5 × 10^-10 M): 263 mol/cell
Substance: IL-9: lymphokine interleukin-9, T-cell derived growth factor; in Tables II and III the 125I-labelled recombinant form is used
- Specific Binding (IL-9R [3]; B lymphocytes LPS-blasts, 125I-labeled IL-9 3.2 × 10^-10 M): -- (below detection limit (<10 mol/cell))
- Specific Binding (IL-9R [3]; B lymphocytes unstimulated, 125I-labeled IL-9 3.2 × 10^-10 M): -- (below detection limit (<10 mol/cell))
- Specific Binding (IL-9R [3]; B-cell hybridoma 7TD1, 125I-labeled IL-9 3.2 × 10^-10 M): -- (below detection limit (<10 mol/cell))
- Specific Binding (IL-9R [3]; CTL clone CTL P1:5, 125I-labeled IL-9 1.6 × 10^-10 M): -- (below detection limit (<10 mol/cell))
- Specific Binding (IL-9R [3]; CTL clone CTL P1:204, 125I-labeled IL-9 6.2 × 10^-11 M): -- (below detection limit (<10 mol/cell))
- Specific Binding (IL-9R [3]; CTL clone CTL P35:10, 125I-labeled IL-9 3.3 × 10^-10 M): -- (below detection limit (<10 mol/cell))
- Specific Binding (IL-9R [3]; CTL clone CTL P35:48, 125I-labeled IL-9 1.3 × 10^-10 M): -- (below detection limit (<10 mol/cell))
- Specific Binding (IL-9R [3]; CTL clone CTL P91:6, 125I-labeled IL-9 1.3 × 10^-10 M): -- (below detection limit (<10 mol/cell))
- Specific Binding (IL-9R [3]; Carcinoa 3LL (Lewis Lung), 125I-labeled IL-9 6.2 × 10^-11 M): -- (below detection limit (<10 mol/cell))
- Specific Binding (IL-9R [3]; Fibroblasts A-9, 125I-labeled IL-9 6.2 × 10^-11 M): -- (below detection limit (<10 mol/cell))
- Specific Binding (IL-9R [3]; Fibrosarcoma MethA, 125I-labeled IL-9 6.2 × 10^-11 M): -- (below detection limit (<10 mol/cell))
- Specific Binding (IL-9R [3]; KLH-primed lymph nodes (C57B/6 mice), 125I-labeled IL-9 6.2 × 10^-10 M): -- (below detection limit (<10 mol/cell))
- Specific Binding (IL-9R [3]; Myeloid Cell Line Ea3,15, 125I-labeled IL-9 5.6 × 10^-10 M): -- (below detection limit (<10 mol/cell))
- Specific Binding (IL-9R [3]; Myeloid Cell Line FDC-P1, 125I-labeled IL-9 5.6 × 10^-10 M): -- (below detection limit (<10 mol/cell))
- Specific Binding (IL-9R [3]; Myelomonocytic leukemia WEHI.3B, 125I-labeled IL-9 7.5 × 10^-10 M): -- (below detection limit (<10 mol/cell))
- Specific Binding (IL-9R [3]; Normal lymph nodes, 125I-labeled IL-9 6.2 × 10^-10 M): -- (below detection limit (<10 mol/cell))
- Specific Binding (IL-9R [3]; Plasmacytoma TEPC1033C, 125I-labeled IL-9 3.2 × 10^-10 M): -- (below detection limit (<10 mol/cell))
- Specific Binding (IL-9R [3]; Spleen Cells, 125I-labeled IL-9 3.2 × 10^-10 M): -- (below detection limit (<10 mol/cell))
- Specific Binding (IL-9R [3]; T lymphocytes ConA-blasts, 125I-labeled IL-9 3.2 × 10^-10 M): -- (below detection limit (<10 mol/cell))
- Specific Binding (IL-9R [3]; T lymphocytes unstimulated, 125I-labeled IL-9 3.2 × 10^-10 M): -- (below detection limit (<10 mol/cell))
- Specific Binding (IL-9R [3]; T-cell leukemia L1210, 125I-labeled IL-9 5.6 × 10^-10 M): -- (below detection limit (<10 mol/cell))
- Specific Binding (IL-9R [3]; T-cell leukemia LEB, 125I-labeled IL-9 6.2 × 10^-11 M): -- (below detection limit (<10 mol/cell))
- Specific Binding (IL-9R [3]; Thymocytes, 125I-labeled IL-9 3.2 × 10^-10 M): -- (below detection limit (<10 mol/cell))
